Residue numbers refer to the chain shown, from its start.

Experiment [1] concerns the target T1, human mesothelin (MSLN) (human, UniProt Q13421 296-580, limits assumed).
T1 construct: Antigen of the Octet KD values
Nature of the experiment: BLI (Octet), multiple concentrations, bsAb in 1+1 Fab-scFv-Fc format; lower table, column 'human MSLN (M)'.

Experiment [2] concerns the target T1, human mesothelin (MSLN). Nature of the experiment: BLI (Octet), bsAb in 1+1 Fab-scFv-Fc format. (In general: Biolayer interferometry detects binding as a change in optical thickness at a sensor tip.)
The target of experiment [3] is T2, human CD28 (human, UniProt P10747 19-152, limits assumed).
T2 construct: also called Cluster of Differentiation 28; Tp44
The experiment can be described thus: method not stated; Monovalent CD28 KD, table headed 1A7[CD28] H1_L1.71 (aka 180 nM).

Experiment [4] concerns the target T1, human mesothelin (MSLN). The experiment can be described thus: label in the legend box: nominal affinity of the MSLN binding domain (paragraph 422 calls such label values KD); method not stated on the sheet.
The target of experiment [5] is T2, human CD28. Nature of the experiment: label in the legend box: nominal affinity of the CD28 binding domain (paragraph 422 calls such label values KD); method not stated on the sheet.
Experiment [6] deals with T2, human CD28. The experiment can be described thus: method not stated; Monovalent CD28 KD, table headed 1A7[CD28] H1.14_L1.71 (aka 37 nM).
Experiment [7] addresses T2, human CD28. The experiment can be described thus: label in the legend box: nominal affinity of the CD28 binding domain (paragraph 422 calls such label values KD); method not stated on the sheet. The source holds these as a separate data set.
Experiment [8] concerns the target T1, human mesothelin (MSLN). Nature of the experiment: label in the legend box: nominal affinity of the MSLN binding domain (paragraph 422 calls such label values KD); method not stated on the sheet. This is another data set of the same source.

B1: XENP32567 (bispecific antibody)
chain 1: QVQLVQSGAEVKKPGASVKVSCKASGYTFTSYWMHWVRQAPGQGLEWMGMIHPNSDNTIYYEKFQGRVTMTVDKSISTAYMELSRLRSDDTAVYYCAIIITPVVPKFDYWGQGTLVTVSSASTKGPSVFPLAPSSKSTSGGTAALGCLVKDYFPEPVTVSWNSGALTSGVHTFPAVLQSSGLYSLSSVVTVPSSSLGTQTYICNVNHKPSDTKVDKKVEPKSCDKTHTCPPCPAPPVAGPSVFLFPPKPKDTLMISRTPEVTCVVVDVKHEDPEVKFNWYVDGVEVHNAKTKPREEEYNSTYRVVSVLTVLHQDWLNGKEYKCKVSNKALPAPIEKTISKAKGQPREPQVYTLPPSREEMTKNQVSLTCDVSGFYPSDIAVEWESDGQPENNYKTTPPVLDSDGSFFLYSKLTVDKSRWEQGDVFSCSVMHEALHNHYTQKSLSLSPGK
chain 2: not shown
chain 3: DIVMTQSPDSLAVSLGERATINCKASHDVGTSVAWYQQKPGQSPKLLIYWASTRHTGVPDRFTGSGSGTDFTLTISSLQAEDVAVYFCQQYYSYPLTFGAGTKLEIKRTVAAPSVFIFPPSDEQLKSGTASVVCLLNNFYPREAKVQWKVDNALQSGNSQESVTEQDSKDSTYSLSSTLTLSKADYEKHKVYACEVTHQGLSSPVTKSFNRGEC
In the experiment with human mesothelin (MSLN) [1], B1 showed a Kd of 3.9 nM. In the experiment with human mesothelin (MSLN) [2], this molecule returned a Kd of 15.3 nM, a Response of 0.953, a dissociation rate constant (koff) of 0.00887 s⁻¹ and a kon of 578000 M⁻¹ s⁻¹.

B2: XENP32552 (bispecific antibody)
chain 1: B1 chain 1 with M50W
chain 2: not shown
chain 3: B1 chain 3 with Y92S
Consider B2, for which the Kd with human mesothelin (MSLN) [1] turned out to be 9.2 nM. In the experiment with human mesothelin (MSLN) [2], this molecule registered a Kd of 30 nM, a Response of 0.915, a koff of 0.0147 s⁻¹ and a kon of 491000 M⁻¹ s⁻¹.

B3: XENP39534 (bispecific antibody)
heavy 1: B1 chain 1 with M430L, N436S
heavy 2: not shown
light 1: B1 chain 3 with Y92S
light 2: B1 chain 3 with Y92S
notes: also called H1_L1.71
As to B3, the affinity with human CD28 [3], expressed as Kd, was 460 nM.

B4: XENP39534 (bispecific antibody)
heavy 1: B1 chain 1 with M430L, N436S
heavy 2: not shown
light 1: B1 chain 3 with Y92S
light 2: B1 chain 3 with Y92S
notes: also called XENP39534 MSLN (0.3 nM) x CD28 (180 nM) 2+1 mAb-scFv
Regarding B4, the Kd with human mesothelin (MSLN) [4] worked out at 0.3 nM; with human CD28 [5], 180 nM.

B5: XENP44469 (bispecific antibody)
chain 1: B1 chain 1 with M430L, N436S
chain 2: not shown
chain 3: B1 chain 3 with Y92S
notes: also called 2+1 Fab2-scFv-Fc MSLN x CD28 bsAb
In the experiment with human CD28 [6], B5 came in with a Kd of 580 nM.

B6: XENP44475 (bispecific antibody)
chain 1: QVQLVQSGAEVKKPGASVKVSCKASGYTFTSYWMHWVRQAPGQGLEWMGMIHPNSDNTIYYEKFQGRVTMTVDKSISTAYMELSRLRSDDTAVYYCAIIITPVVPKFDYWGQGTLVTVSSASTKGPSVFPLAPSSKSTSGGTAALGCLVKDYFPEPVTVSWNSGALTSGVHTFPAVLQSSGLYSLSSVVTVPSSSLGTQTYICNVNHKPSDTKVDKKVEPKSCGGGGSGGGGSQVQLVQSGAEVKKPGASVKVSCKASGYTFTSYWMHWVRQAPGQGLEWMGMIHPNSDNTIYYEKFQGRVTMTVDKSISTAYMELSRLRSDDTAVYYCAIIITPVVPKFDYWGQGTLVTVSSASTKGPSVFPLAPSSKSTSGGTAALGCLVKDYFPEPVTVSWNSGALTSGVHTFPAVLQSSGLYSLSSVVTVPSSSLGTQTYICNVNHKPSDTKVDKKVEPKSCDKTHTCPPCPAPPVAGPSVFLFPPKPKDTLMISRTPEVTCVVVDVKHEDPEVKFNWYVDGVEVHNAKTKPREEEYNSTYRVVSVLTVLHQDWLNGKEYKCKVSNKALPAPIEKTISKAKGQPREPQVYTLPPSREEMTKNQVSLTCDVSGFYPSDIAVEWESDGQPENNYKTTPPVLDSDGSFFLYSKLTVDKSRWEQGDVFSCSVLHEALHSHYTQKSLSLSPGK
chain 2: not shown
chain 3: B1 chain 3 with Y92S
notes: also called 2+1 Fab2-Fc x scFv-Fc MSLN x CD28 bsAb
Consider B6, for which, in the experiment with human CD28 [6], the dissociation constant Kd came out at 740 nM.

B7: XENP39554 (bispecific antibody)
heavy: B1 chain 1 with M430L, N436S
scFv-Fc: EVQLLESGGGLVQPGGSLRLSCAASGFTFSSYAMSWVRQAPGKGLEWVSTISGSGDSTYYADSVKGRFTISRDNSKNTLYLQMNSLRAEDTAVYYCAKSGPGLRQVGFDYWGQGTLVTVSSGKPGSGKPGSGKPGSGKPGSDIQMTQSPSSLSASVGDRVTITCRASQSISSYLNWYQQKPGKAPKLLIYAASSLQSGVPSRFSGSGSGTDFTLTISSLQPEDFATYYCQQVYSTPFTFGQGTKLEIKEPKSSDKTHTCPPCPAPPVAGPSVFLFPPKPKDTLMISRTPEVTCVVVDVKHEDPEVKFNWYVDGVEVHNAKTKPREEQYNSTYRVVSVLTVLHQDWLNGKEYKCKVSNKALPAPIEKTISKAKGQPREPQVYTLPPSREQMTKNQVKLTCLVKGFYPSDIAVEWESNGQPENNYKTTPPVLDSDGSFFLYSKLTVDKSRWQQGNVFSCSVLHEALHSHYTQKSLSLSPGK
light: B1 chain 3 with Y92S
notes: also called H1_L1.71
In the experiment with human CD28 [3], B7 registered a dissociation constant Kd of 200 nM.

B8: XENP44468 (bispecific antibody)
chain 1: B1 chain 1 with M430L, N436S
chain 2: not shown
chain 3: B1 chain 3 with Y92S
notes: as for B5
In turn, B8 came in with a dissociation constant (Kd) with human CD28 [3] of 1200 nM.

B9: XENP44474 (bispecific antibody)
chain 1: B6 chain 1
chain 2: not shown
chain 3: B1 chain 3 with Y92S
notes: as for B6
B9: the Kd with human CD28 [3] is 4900 nM.

B10: XENP39570 (bispecific antibody)
heavy: B1 chain 1 with M50W, M430L, N436S
scFv-Fc: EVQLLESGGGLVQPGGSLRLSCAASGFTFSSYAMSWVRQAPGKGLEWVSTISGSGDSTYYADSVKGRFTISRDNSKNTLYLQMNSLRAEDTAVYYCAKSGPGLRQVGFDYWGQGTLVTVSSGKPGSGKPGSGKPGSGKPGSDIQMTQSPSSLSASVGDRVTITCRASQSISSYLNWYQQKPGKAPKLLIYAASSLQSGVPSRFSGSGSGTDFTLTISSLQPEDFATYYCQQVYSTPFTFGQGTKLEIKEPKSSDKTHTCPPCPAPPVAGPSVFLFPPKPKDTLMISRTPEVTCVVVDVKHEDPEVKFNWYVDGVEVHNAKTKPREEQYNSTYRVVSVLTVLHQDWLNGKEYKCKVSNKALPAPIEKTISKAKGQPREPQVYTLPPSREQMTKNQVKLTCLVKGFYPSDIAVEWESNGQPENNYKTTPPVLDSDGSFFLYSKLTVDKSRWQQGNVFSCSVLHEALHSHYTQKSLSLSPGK
light: B1 chain 3 with T31Q, Y92S
notes: also called XENP39570 MSLN (90 nM) x CD28 (180 nM) 1+1 Fab-scFv-Fc
In the case of B10, the Kd with human mesothelin (MSLN) [4] was found to be 90 nM; in the experiment with human CD28 [5], 180 nM.

B11: XENP39533 (bispecific antibody)
heavy 1: B1 chain 1 with M430L, N436S
heavy 2: not shown
light 1: B1 chain 3 with Y92S
light 2: B1 chain 3 with Y92S
notes: also called H1.14_L1.71
Molecule B11 showed a Kd with human CD28 [6] of 660 nM.

B12: XENP44479 (bispecific antibody)
heavy: B6 chain 1 with M50W, M283W
scFv-Fc: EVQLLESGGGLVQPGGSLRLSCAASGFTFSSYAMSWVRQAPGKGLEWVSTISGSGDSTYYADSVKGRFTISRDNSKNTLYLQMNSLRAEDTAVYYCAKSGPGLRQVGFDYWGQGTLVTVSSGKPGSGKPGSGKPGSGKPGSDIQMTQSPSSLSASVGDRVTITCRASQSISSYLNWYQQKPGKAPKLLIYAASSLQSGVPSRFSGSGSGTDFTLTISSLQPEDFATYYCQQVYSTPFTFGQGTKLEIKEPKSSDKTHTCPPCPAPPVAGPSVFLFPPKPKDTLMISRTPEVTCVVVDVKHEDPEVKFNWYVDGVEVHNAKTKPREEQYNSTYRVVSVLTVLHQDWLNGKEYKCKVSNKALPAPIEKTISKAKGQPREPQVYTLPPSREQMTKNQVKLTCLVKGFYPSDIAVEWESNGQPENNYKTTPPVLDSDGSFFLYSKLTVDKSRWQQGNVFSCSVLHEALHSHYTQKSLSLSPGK
light 1: B1 chain 3 with T31Q, Y92S
light 2: B1 chain 3 with T31Q, Y92S
notes: also called XENP44479 MSLN (90 nM) x CD28 (180 nM) 2+1 Fab2-Fc x scFv-Fc
Turning to B12, the Kd with human CD28 [7] is 180 nM; in the experiment with human mesothelin (MSLN) [8], 90 nM.

Usually Kd stands for the free concentration of one partner at which half of the binding sites on the other are occupied at equilibrium, for simple one-to-one binding. Usually koff stands for the rate constant with which the complex falls apart. High values mean a short-lived complex, low ones a long-lived complex. Usually kon stands for the rate constant with which the complex forms. Lower therefore signals slower complex formation.
